The values that follow are results of earlier work, collected in publication PMC4340714.

The data set deals with Mst2 kinase domain (Homo sapiens) (UniProt Q13188).
Sequence of UniProt Q13188 (Q13188 27-278): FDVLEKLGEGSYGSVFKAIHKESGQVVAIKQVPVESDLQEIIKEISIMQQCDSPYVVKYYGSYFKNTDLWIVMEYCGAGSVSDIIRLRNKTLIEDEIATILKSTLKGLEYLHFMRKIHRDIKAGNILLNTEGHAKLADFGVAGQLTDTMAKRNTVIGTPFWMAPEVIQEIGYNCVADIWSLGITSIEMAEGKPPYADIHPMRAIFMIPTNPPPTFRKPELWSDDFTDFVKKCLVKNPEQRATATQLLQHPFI

With “Mst1 kinase domain (from UniProt Q13043)”, the Kd is 36 µM.
